Source: PMC7703752, “Proteome-level assessment of origin, prevalence and function of leucine-aspartic acid (LD) motifs” (Bioinformatics, 2019)
Where no end group is shown, it is not given here. The star is where a group is joined. FITC = O=C1OC2(c3ccc(O)cc3Oc3cc(O)ccc32)c2ccc(NC(=S)*)cc21; Ahx = NCCCCCC(=O)O

T1: FAT domain of human FAK (892–1052) (human, UniProt Q05397 892-1052)
T1 chain: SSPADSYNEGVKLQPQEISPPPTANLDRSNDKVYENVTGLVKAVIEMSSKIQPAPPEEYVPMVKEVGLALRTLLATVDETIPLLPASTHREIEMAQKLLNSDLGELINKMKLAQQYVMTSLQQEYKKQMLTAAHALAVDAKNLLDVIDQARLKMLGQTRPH

T2: rat GIT1 (647-770) (rat, UniProt Q9Z272 647-770)
T2 chain: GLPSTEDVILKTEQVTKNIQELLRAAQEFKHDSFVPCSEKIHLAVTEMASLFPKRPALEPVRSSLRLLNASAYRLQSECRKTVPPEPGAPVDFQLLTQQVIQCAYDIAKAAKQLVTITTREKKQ

T3: Human α-parvin-CHC (residues 242–372) (human, UniProt Q9NVD7 242-372)
T3 chain: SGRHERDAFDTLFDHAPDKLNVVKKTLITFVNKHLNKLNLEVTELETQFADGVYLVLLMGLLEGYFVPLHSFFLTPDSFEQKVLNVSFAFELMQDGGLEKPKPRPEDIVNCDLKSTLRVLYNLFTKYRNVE

T4: Human α-parvin-CHC (residues 242–372) (human, UniProt Q9NVD7 242-372)
T4 construct: α-parvin, human, second CH domain (CHC), residues 242-372; Purification and fate of the GST are told only in the Supplementary Material and in the cited work (Lorenz et al., 2008); also called second CH domain of α-parvin; source: E. coli BL21, expressed as GST-fusion protein
T4 sequence (looked up): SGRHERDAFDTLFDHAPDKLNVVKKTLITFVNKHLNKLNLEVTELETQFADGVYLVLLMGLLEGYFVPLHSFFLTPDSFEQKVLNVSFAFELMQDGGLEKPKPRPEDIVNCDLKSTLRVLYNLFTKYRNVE

T5: FAT domain of human FAK (892–1052) (human, UniProt Q05397 892-1052)
T5 construct: focal adhesion kinase (FAK), human, FAT domain, residues 892-1052; 15N-labelled for the NMR titrations; Purification and fate of the GST are told only in the Supplementary Material and in the cited work (Arold et al., 2002); also called FAK FAT; four-helix FAT domain from FAK; source: E. coli BL21, expressed as GST-fusion protein
T5 sequence (looked up): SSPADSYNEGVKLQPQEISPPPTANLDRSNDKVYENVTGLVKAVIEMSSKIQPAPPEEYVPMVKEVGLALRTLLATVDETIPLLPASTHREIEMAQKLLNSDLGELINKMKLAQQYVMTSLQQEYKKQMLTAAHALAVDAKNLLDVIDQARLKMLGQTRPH

T6: Human α-parvin-CHC (residues 242-372) (human, UniProt Q9NVD7 242-372)
T6 construct: α-parvin, human, C-terminal CH domain, residues 242-372; also called second CH domain of α-parvin; source: E. coli BL21, expressed as GST-fusion protein (pGex 6P1), purified as described previously (Lorenz et al., 2008)
T6 sequence (looked up): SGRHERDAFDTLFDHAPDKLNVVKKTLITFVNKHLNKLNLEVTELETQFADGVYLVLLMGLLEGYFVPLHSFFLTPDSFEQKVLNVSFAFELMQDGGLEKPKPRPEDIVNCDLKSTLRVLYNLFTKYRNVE

T7: FAT domain of human FAK (892-1052) (human, UniProt Q05397 892-1052)
T7 construct: focal adhesion kinase (FAK), human, FAT domain, residues 892-1052; 15N-labelled (M9 minimal medium) in the NMR titrations; also called FAK FAT; focal adhesion targeting domain; source: E. coli BL21, expressed as GST-fusion protein (pGexP2), purified as described previously (Arold et al., 2002)
T7 sequence (looked up): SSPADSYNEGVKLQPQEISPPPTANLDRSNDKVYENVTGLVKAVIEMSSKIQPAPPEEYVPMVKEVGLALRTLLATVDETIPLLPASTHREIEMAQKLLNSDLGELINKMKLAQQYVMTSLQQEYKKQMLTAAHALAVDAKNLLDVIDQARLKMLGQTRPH

T8: rat GIT1 (647-770) (rat, UniProt Q9Z272 647-770)
T8 construct: also called GIT1 FAH; GIT1 FAH domain; source: E. coli BL21, expressed as GST-fusion protein (pGex-4T1), purified as described previously (Schmalzigaug et al., 2007)
T8 sequence (looked up): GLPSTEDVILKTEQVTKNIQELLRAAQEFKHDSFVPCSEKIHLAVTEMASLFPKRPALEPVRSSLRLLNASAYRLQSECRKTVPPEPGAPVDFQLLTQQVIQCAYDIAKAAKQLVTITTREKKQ

B1: RALGAPA1 LD motif peptide (peptide)
peptide: EDVLDELLQYLGVT
modifications: also: N-terminal FITC-Ahx only in labelled form
notes: predicted LD motif of human RALGAPA1; also called RGPA1; source: synthetic peptide, bought: GenScript
B2: paxillin LD4 peptide, unlabelled (peptide)
peptide: SASSATRELDELMASLSD
notes: paxillin, human, LD4 motif with flanking residues; form without label, used in ACA, DSF, ITC and NMR; source: synthetic peptide, bought: GenScript
B3: paxillin LD4 peptide, FITC-Ahx-labelled (peptide)
peptide: {FITC-Ahx}-SASSATRELDELMASLSD
notes: paxillin, human, LD4 motif with flanking residues; also called labelled LD4; FITC-Ahx-labelled LD4; source: synthetic peptide, bought: GenScript
B4: EPB41L5 (Band 4.1-like protein 5) LD motif peptide (peptide)
peptide: ATDELDALLASLTENLID
modifications: also: N-terminal FITC-Ahx only in labelled form
notes: predicted LD motif of human EPB41L5 (Band 4.1-like protein 5); also called E41L5; YMO1; source: synthetic peptide, bought: GenScript
B5: RALGAPA1 LD motif peptide, FITC-Ahx-labelled (peptide)
peptide: {FITC-Ahx}-EDVLDELLQYLGVT
notes: core motif 1680-1689; labelled form, used in direct anisotropy and MST; also called RGPA1; source: synthetic peptide, bought: GenScript
B6: C16orf71 LD motif peptide, FITC-Ahx-labelled (peptide)
peptide: {FITC-Ahx}-EAWDLDDILQSLQGQ
notes: Uncharacterized protein C16orf71, human; core motif 267-276; labelled form, used in direct anisotropy and MST; also called CP071; source: synthetic peptide, bought: GenScript

Tests used:
[1] = biological target: T1, FAT domain of human FAK (892–1052); assay: MST
rat GIT1 (647-770) [2] = biological target: T2, rat GIT1 (647-770); assay: MST
[3] = biological target: T3, Human α-parvin-CHC (residues 242–372); assay: MST
[4] = biological target: T1, FAT domain of human FAK (892–1052); assay: FP
rat GIT1 (647-770) [5] = biological target: T2, rat GIT1 (647-770); assay: FP
[6] = biological target: T3, Human α-parvin-CHC (residues 242–372); assay: FP
[7] = biological target: T4, Human α-parvin-CHC (residues 242–372); assay: fluorescence polarisation + MST + ITC + other: differential scanning fluorimetry; synthesized peptides against recombinant LDBDs in vitro; direct anisotropy with labelled candidate peptides, anisotropy competition of unlabelled peptides against fluorescently labelled known LD motifs, ITC, MST and DSF summed up together; 25°C, 20 mM HEPES pH 7.5, 150 mM NaCl, 2 mM EDTA, 1 mM TCEP, unless stated otherwise; details: both partners purified
[8] = biological target: T5, FAT domain of human FAK (892–1052); assay: as above; details: both partners purified
[9] = biological target: T6, Human α-parvin-CHC (residues 242-372); assay: fluorescence polarisation; anisotropy competition assay (ACA): 10 μM FAT or 25 μM α-parvin with 0.1 μM FITC-Ahx-LD4; unlabelled peptide added at 100 and 250 μM; details: both partners purified
[10] = biological target: T7, FAT domain of human FAK (892-1052); assay: differential scanning fluorimetry; 10 μM protein, peptide at 100 and 250 μM, SYPRO Orange; 20 mM HEPES pH 7.5, 150 mM NaCl, 2 mM EDTA, 1 mM TCEP; 20 to 95 °C; details: both partners purified
[11] = biological target: T6, Human α-parvin-CHC (residues 242-372); assay: fluorescence polarisation; direct anisotropy: FAT or α-parvin titrated, FITC-Ahx-labelled LD4 at 0.1 μM; 20 mM HEPES pH 7.5, 150 mM NaCl, 2 mM EDTA, 2 mM DTT, 0.005% Tween-20; room temperature; details: both partners purified
[12] = biological target: T7, FAT domain of human FAK (892-1052); assay: as above; details: both partners purified
[13] = biological target: T1, FAT domain of human FAK (892–1052); assay: ITC
rat GIT1 (647-770) [14] = biological target: T2, rat GIT1 (647-770); assay: ITC
[15] = biological target: T6, Human α-parvin-CHC (residues 242-372); assay: fluorescence polarisation + MST; the 'quantitative' methods, summed up in one sentence for each peptide: direct anisotropy (protein serially diluted, FITC-Ahx peptide 0.1 μM; 20 mM HEPES pH 7.5, 150 mM NaCl, 2 mM EDTA, 2 mM DTT, 0.005% Tween-20; room temperature) and MST (protein diluted from 560 μM FAT or 530 μM α-parvin, labelled peptide 0.1 μM, 0.05% Tween-20, 25 °C); ITC in selected cases; details: both partners purified
[16] = biological target: T7, FAT domain of human FAK (892-1052); assay: as above; details: both partners purified
rat GIT1 (647-770) [17] = biological target: T8, rat GIT1 (647-770); assay: fluorescence polarisation + MST; 'additional DA and MST experiments' with GIT1: GIT1 serially diluted (MST from 630 μM, standard capillaries, 25 °C), FITC-Ahx peptide 0.1 μM; 20 mM HEPES pH 7.5, 150 mM NaCl, 2 mM EDTA, 2 mM DTT, Tween-20; details: both partners purified
[18] = biological target: T6, Human α-parvin-CHC (residues 242-372); assay: fluorescence polarisation + MST; the 'quantitative' methods, summed up in one sentence for each peptide: direct anisotropy (protein serially diluted, FITC-Ahx peptide 0.1 μM; 20 mM HEPES pH 7.5, 150 mM NaCl, 2 mM EDTA, 2 mM DTT, 0.005% Tween-20; room temperature) and MST (protein diluted from 560 μM FAT or 530 μM α-parvin, labelled peptide 0.1 μM, 0.05% Tween-20, 25 °C); ITC in selected cases; details: both partners purified; remark: listed apart in the source
[19] = biological target: T7, FAT domain of human FAK (892-1052); assay: as above; details: both partners purified; remark: listed apart in the source

Binder	Kd [1] [µM]	Kd [3] [µM]	Kd [4] [µM]	Kd (rat GIT1 (647-770) [5]) [µM]	Kd [6] [µM]	binding result [7]	binding result [8]	further results
B1	42.5	25.7	43.6	88	49.4	binds	binds	Kd (rat GIT1 (647-770) [2]): 77.5 µM
B2								binding result [9]: binds; binding result [10]: binds
B3								Kd [11]: 25 µM; Kd [12]: 10 µM
B4	13	4	2.7	83.6	28.2	binds	binds	Kd [13]: 6 µM; Kd (rat GIT1 (647-770) [14]): 39.3 µM
B5								binding result [15]: binds; binding result [16]: binds; Kd (rat GIT1 (647-770) [17]): ~80 µM
B6								binding result [18]: binds; binding result [19]: binds
